Source: patent publication US20150203577A1 (Chugai, published 2015)
Numbering of substitutions follows the chain as printed. Names and notes keep the numbering of the source. Where two headings read alike, the source gives them in different places.

T1: mouse FcγRII extracellular domain, C-terminal His tag (mouse, UniProt P08101 30-210)
T1 construct: Whole entry named; also called mFcγRII; mFcgRII
T1 sequence: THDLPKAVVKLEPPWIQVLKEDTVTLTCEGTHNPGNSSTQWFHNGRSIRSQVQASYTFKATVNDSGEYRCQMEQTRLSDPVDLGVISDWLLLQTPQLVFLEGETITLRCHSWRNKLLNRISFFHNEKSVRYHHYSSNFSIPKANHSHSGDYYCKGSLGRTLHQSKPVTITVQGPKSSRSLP

T2: mouse FcγRIII extracellular domain, C-terminal His tag (mouse, UniProt P08508 31-215)
T2 construct: Whole entry named; also called mFcγRIII; mFcgRIII
T2 chain: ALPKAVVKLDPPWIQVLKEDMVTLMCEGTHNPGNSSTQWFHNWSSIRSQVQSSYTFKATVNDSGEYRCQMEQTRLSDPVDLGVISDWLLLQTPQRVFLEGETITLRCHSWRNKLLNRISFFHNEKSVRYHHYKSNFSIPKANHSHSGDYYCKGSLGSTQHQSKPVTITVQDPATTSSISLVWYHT

T3: mouse FcγRII extracellular domain with C-terminal His tag (mouse, UniProt P08101 30-210)
T3 construct: Made on the basis of NCBI NP-034317.1; also called mFcγRII; mFcgRII
T3 sequence: T1 sequence

T4: mouse FcγRIII extracellular domain with C-terminal His tag (mouse, UniProt P08508 31-215)
T4 construct: Made on the basis of NCBI NP-034318.2; also called mFcγRIII; mFcgRIII
T4 chain: T2 chain

B1: H237-MB529/MRAL-k0 (antibody, mouse IgG1, kappa)
heavy: QVQLQESGPGLVKPSETLSLTCAVSGHSISHDHAWSWVRQPPGEGLEWIGFISYSGITNYNPSLQGRVTISRDNSKNTLYLQMNSLRAEDTAVYYCARSLARTTAMDYWGEGTLVTVSSAKTTPPSVYPLAPGSAAQTNSMVTLGCLVKGYFPEPVTVTWNSGSLSSGVHTFPAVLQSDLYTLSSSVTVPSSTWPSETVTCNVAHPASSTKVDKKIVPRDCGCKPCICQPNEVEEVFIFPPKPKDVLTITLTPKVTCVVVDISKDDPEVQFSWFVDDVEVHTAQTQPREEQFNLTFRSVSELPIMHQDWLNGKEFKCRVNSAAFPAPIERTISKTKGRPKAPQVYTIPPPKEQMAKDKVSLTCMITDFFPEDITVEWQWNGQPAENYKNTQPIMDTDGSYFVYSKLNVQKSNWEAGNTFTCSVLHEGLHNHHTEKSLSHSPGK
light: not shown
notes: copies: 2 + 2
B2: H237-MB537/MRAL-k0 (antibody, mouse IgG1, kappa)
heavy: B1 heavy with N320D, A322D
light: not shown
notes: copies: 2 + 2
B3: H237-MB382/MRAL-k0 (antibody, mouse IgG1, kappa)
heavy: B1 heavy with Q229E, P230D, N231Y, E235D, L294S, R330K
light: not shown
notes: mIgG1 with T230E/V231D/P232Y/S238E/S239D (EU); template T2; copies: 2 + 2
B4: H237-MB549/MRAL-k0 (antibody, mouse IgG1, kappa)
heavy: B1 heavy with Q229E, E235M, N320D, A322D
light: not shown
notes: copies: 2 + 2
B5: H237-MB475/MRAL-k0 (antibody, mouse IgG1, kappa)
heavy: B1 heavy with Q229E, L294S, R330K
light: not shown
notes: copies: 2 + 2
B6: H237-MB531/MRAL-k0 (antibody, mouse IgG1, kappa)
heavy: B1 heavy with L294S, N320D
light: not shown
notes: copies: 2 + 2
B7: H237-MB535/MRAL-k0 (antibody, mouse IgG1, kappa)
heavy: B1 heavy with A322D
light: not shown
notes: copies: 2 + 2
B8: H237-MB476/MRAL-k0 (antibody, mouse IgG1, kappa)
heavy: B1 heavy with L294S, R330K
light: not shown
notes: mIgG1 with T230Q/V231P/P232N/S238E/S239E (EU); copies: 2 + 2
B9: H237-MB532/MRAL-k0 (antibody, mouse IgG1, kappa)
heavy: B1 heavy with L294S, A322D
light: not shown
notes: copies: 2 + 2
B10: H237-MB473/MRAL-k0 (antibody, mouse IgG1, kappa)
heavy: B1 heavy with Q229E, N231A, L294S, R330K
light: not shown
notes: copies: 2 + 2
B11: H237-MB379/MRAL-k0 (antibody, mouse IgG1, kappa)
heavy: B1 heavy with Q229E, P230V, N231Y, E235D, L294S, R330K
light: not shown
notes: mIgG1 with T230E/P232Y/S238E/S239D (EU); template T5; copies: 2 + 2
B12: H237-MB513/MRAL-k0 (antibody, mouse IgG1, kappa)
heavy: B1 heavy with Q229E, N231A, E235M, L294S, R330K
light: not shown
notes: copies: 2 + 2
B13: H237-MB542/MRAL-k0 (antibody, mouse IgG1, kappa)
heavy: B1 heavy with Q229E, E235M, L294S, N320D, A322D, R330K
light: not shown
notes: copies: 2 + 2
B14: H237-MB548/MRAL-k0 (antibody, mouse IgG1, kappa)
heavy: B1 heavy with Q229E, E235M, L294S, N320D, A322D
light: not shown
notes: copies: 2 + 2
B15: H237-MB533/MRAL-k0 (antibody, mouse IgG1, kappa)
heavy: B1 heavy with N320D, A322D, R330K
light: not shown
notes: copies: 2 + 2
B16: H237-MB474/MRAL-k0 (antibody, mouse IgG1, kappa)
heavy: B1 heavy with Q229I, N231A, L294S, R330K
light: not shown
notes: copies: 2 + 2
B17: H237-MB524/MRAL-k0 (antibody)
heavy: B1 heavy with Q229E, E235W, L294S, R330K
light: not shown
notes: copies: 2 + 2
B18: H237-MB544/MRAL-k0 (antibody, mouse IgG1, kappa)
heavy: B1 heavy with Q229E, E235M, L294S, A322D
light: not shown
notes: copies: 2 + 2
B19: H237-MB515/MRAL-k0 (antibody, mouse IgG1, kappa)
heavy: B1 heavy with Q229E, E235M, L294S, R330K
light: not shown
notes: mIgG1 with T230E/V231P/P232N/S238E/S239M (EU); copies: 2 + 2
B20: H237-MB530/MRAL-k0 (antibody, mouse IgG1, kappa)
heavy: B1 heavy with L294S, N320D, A322D, R330K
light: not shown
notes: copies: 2 + 2
B21: H237-MB536/MRAL-k0 (antibody, mouse IgG1, kappa)
heavy: B1 heavy with L294S, N320D, A322D
light: not shown
notes: copies: 2 + 2
B22: H237-MB486/MRAL-k0 (antibody, mouse IgG1, kappa)
heavy: B1 heavy with Q229E, N231A, E235S, L294S, R330K
light: not shown
notes: copies: 2 + 2
B23: H237-MB373/MRAL-k0 (antibody, mouse IgG1, kappa)
heavy: B1 heavy with Q229E, P230A, N231Y, E235D, L294S, R330K
light: not shown
notes: mIgG1 with T230E/V231A/P232Y/S238E/S239D (EU); template T1; copies: 2 + 2
B24: H237-MB534/MRAL-k0 (antibody, mouse IgG1, kappa)
heavy: B1 heavy with N320D
light: not shown
notes: copies: 2 + 2

Assays:
[1] = target: T1, mouse FcγRII extracellular domain, …; test: SPR (Biacore T200), 1:1 fit
Description: (§1) Each altered antibody was analyzed for its interaction with each Fcγ receptor prepared above using Biacore T100 (GE Healthcare Japan Corp.), Biacore T200 (GE Healthcare Japan Corp.), Biacore A100, or Biacore 4000. The running buffer used was HBS-EP+ (GE Healthcare Japan Corp.). The assay temperature was set to 25° C. The sensor chips used were chips prepared by immobilizing Protein L (ACTIGEN or BioVision) onto Series S Sensor Chip CM5 (GE Healthcare Japan Corp.) or Series S Sensor Chip CM4 (GE Healthcare Japan Corp.) by the amine coupling method.
(§2) In order to calculate the KD value of each altered antibody for FcγR, kinetic analysis was conducted according to the following method: first, the antibody of interest was captured onto any of these chips and allowed to interact with mFcγR diluted with a running buffer. For the obtained sensorgram, the assay results were globally fit into the 1:1 Langmuir binding model using Biacore Evaluation Software to calculate an association rate constant ka (L/mol/s) and a dissociation rate constant kd (1/s). From these values, the dissociation constant KD (mol/L) was calculated.

[2] = target: T2, mouse FcγRIII extracellular domain, …; test: SPR (Biacore T200), 1:1 fit
Description: as §1, §2

[3] = target: T2, mouse FcγRIII extracellular domain, …; test: SPR (Biacore T200); KD of H237-mIgG1/MRAL-k0 / KD of variant
Description: as §1, §2

[4] = target: T3, mouse FcγRII extracellular domain with …; test: SPR Biacore T200
[5] = target: T4, mouse FcγRIII extracellular domain with …; test: SPR Biacore T200
[6] = target: T3, mouse FcγRII extracellular domain with …; test: SPR Biacore T200; remark: listed apart in the source
Description: as §1, §2

[7] = target: T4, mouse FcγRIII extracellular domain with …; test: SPR Biacore T200
Description: as §1, §2

[8] = target: T3, mouse FcγRII extracellular domain with …; test: SPR Biacore T200; remark: listed apart in the source
Description: as §1, §2

[9] = target: T4, mouse FcγRIII extracellular domain with …; test: SPR Biacore T200
Description: as §1, §2

[10] = target: T3, mouse FcγRII extracellular domain with …; test: SPR Biacore T200; KD mFcγRIII / KD mFcγRII

Binder | Kd [1] [nM] | Kd [2] [nM] | relative mFcγRIII-binding activity (mIgG1 = 1) [3] [fold] | relative mFcγRII-binding activity (mIgG1 = 1) [6] | relative mFcγRIII-binding activity (mIgG1 = 1) [7] | Kd [8] [nM] | Kd [9] [nM] | also measured
B1 | 0.745 | 47.6 | 5.9 |  |  |  |  | 
B2 | 0.412 | 31.7 | 8.9 |  |  |  |  | 
B3 |  |  |  | 321 | 12.3 | 0.655 | 23 | Kd [4]: 0.655 nM; relative mFcγRII-binding activity (mIgG1 = 1) [4]: 321; Kd [5]: 23 nM; relative mFcγRIII-binding activity (mIgG1 = 1) [5]: 12.3; I/A (mFcγRII selectivity) [10]: 35.1; relative I/A (mFcγRII selectivity) (mIgG1 = 1) [10]: 26.2
B4 | 1 | 52.1 | 5.4 |  |  |  |  | 
B5 |  |  |  | 214 | 3.5 | 0.979 | 81.4 | 
B6 | 0.918 | 85 | 3.3 |  |  |  |  | 
B7 | 0.498 | 33.2 | 8.5 |  |  |  |  | 
B8 |  |  |  | 246 | 3.4 | 0.854 | 84 | 
B9 | 0.639 | 45.4 | 6.2 |  |  |  |  | 
B10 |  |  |  | 57.6 | 1.4 | 3.65 | 196 | 
B11 |  |  |  | 273 | 12.2 | 0.768 | 23.2 | Kd [4]: 0.768 nM; relative mFcγRII-binding activity (mIgG1 = 1) [4]: 273; Kd [5]: 23.2 nM; relative mFcγRIII-binding activity (mIgG1 = 1) [5]: 12.2; I/A (mFcγRII selectivity) [10]: 30.2; relative I/A (mFcγRII selectivity) (mIgG1 = 1) [10]: 22.5
B12 |  |  |  | 46.3 | 0.6 | 4.53 | 509 | 
B13 | 0.547 | 83.3 | 3.4 |  |  |  |  | 
B14 | 0.589 | 71.7 | 3.9 |  |  |  |  | 
B15 | 0.534 | 39 | 7.2 |  |  |  |  | 
B16 |  |  |  | 42.9 | 1.1 | 4.89 | 247 | 
B17 |  |  |  | 10 | 0.3 | 21 | 837 | 
B18 | 0.76 | 87.2 | 3.2 |  |  |  |  | 
B19 |  |  |  | 165 | 1.7 | 1.27 | 171 | 
B20 | 0.337 | 35.1 | 8 |  |  |  |  | 
B21 | 0.53 | 36.8 | 7.7 |  |  |  |  | 
B22 |  |  |  | 28.1 | 1.1 | 7.47 | 258 | 
B23 |  |  |  | 390 | 15.5 | 0.538 | 18.2 | Kd [4]: 0.538 nM; relative mFcγRII-binding activity (mIgG1 = 1) [4]: 390; Kd [5]: 18.2 nM; relative mFcγRIII-binding activity (mIgG1 = 1) [5]: 15.5; I/A (mFcγRII selectivity) [10]: 33.8; relative I/A (mFcγRII selectivity) (mIgG1 = 1) [10]: 25.2
B24 | 0.499 | 8.34 | 33.8 |  |  |  |  | 
